The numbers were not newly measured in paper PMC4319847 (PLoS ONE, 2015), which cites them from elsewhere.

For the series, the system named is Yeast importin-α. The settings on record: in the crystal (1BK6) and in solution by DLS; ref [13]. The source says:
The open homodimerization probably attributes to H119 at the top of the loop; this loop corresponds to the K ...

B1: Yeast importin-α: Yeast importin-α (1BK6), first crystal structure of an importin-α shown to dimerize (protein, UniProt Q02821 1-542, looked up)
Importin subunit alpha: MDNGTDSSTSKFVPEYRRTNFKNKGRFSADELRRRRDTQQVELRKAKRDEALAKRRNFIPPTDGADSDEEDESSVSADQQFYSQLQQELPQMTQQLNSDDMQEQLSATVKFRQILSREHRPPIDVVIQAGVVPRLVEFMRENQPEMLQLEAAWALTNIASGTSAQTKVVVDADAVPLFIQLLYTGSVEVKEQAIWALGNVAGDSTDYRDYVLQCNAMEPILGLFNSNKPSLIRTATWTLSNLCRGKKPQPDWSVVSQALPTLAKLIYSMDTETLVDACWAISYLSDGPQEAIQAVIDVRIPKRLVELLSHESTLVQTPALRAVGNIVTGNDLQTQVVINAGVLPALRLLLSSPKENIKKEACWTISNITAGNTEQIQAVIDANLIPPLVKLLEVAEYKTKKEACWAISNASSGGLQRPDIIRYLVSQGCIKPLCDLLEIADNRIIEVTLDALENILKMGEADKEARGLNINENADFIEKAGGMEKIFNCQQNENDKIYEKAYKIIETYFGEEEDAVDETMAPQNAGNTFGFGSNVNQQFNFN
With B1, the dimerization result is listed as “dimerize not only in the crystal but also in solution”.
